# Test results taken from paper PMC9127186, “Molecular Basis Underlying Hepatobiliary and Renal Excretion of Phenolic Acids of Salvia miltiorrhiza Roots (Danshen)” (Frontiers in Pharmacology, 2022).
# T1: rat Bcrp (Rattus norvegicus, UniProt Q80W57)
# T1 sequence (Q80W57 1-657): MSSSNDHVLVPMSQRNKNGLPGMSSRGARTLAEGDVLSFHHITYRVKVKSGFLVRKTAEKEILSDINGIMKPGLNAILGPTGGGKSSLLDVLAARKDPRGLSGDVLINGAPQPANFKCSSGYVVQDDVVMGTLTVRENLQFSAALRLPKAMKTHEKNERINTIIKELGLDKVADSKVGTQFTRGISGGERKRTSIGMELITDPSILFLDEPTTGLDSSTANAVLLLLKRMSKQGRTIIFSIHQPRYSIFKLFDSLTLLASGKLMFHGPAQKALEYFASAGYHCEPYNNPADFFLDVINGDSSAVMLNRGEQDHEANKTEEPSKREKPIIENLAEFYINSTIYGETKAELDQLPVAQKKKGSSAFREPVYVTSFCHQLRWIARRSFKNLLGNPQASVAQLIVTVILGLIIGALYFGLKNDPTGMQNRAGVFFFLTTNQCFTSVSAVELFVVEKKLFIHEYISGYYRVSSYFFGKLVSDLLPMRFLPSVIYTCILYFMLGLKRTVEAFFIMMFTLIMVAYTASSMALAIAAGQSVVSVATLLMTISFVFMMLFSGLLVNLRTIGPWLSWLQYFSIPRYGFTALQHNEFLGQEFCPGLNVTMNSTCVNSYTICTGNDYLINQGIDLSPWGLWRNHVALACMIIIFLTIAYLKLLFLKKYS
# T2: human BCRP (Homo sapiens, UniProt Q9UNQ0)
# T2 sequence (Q9UNQ0 1-655): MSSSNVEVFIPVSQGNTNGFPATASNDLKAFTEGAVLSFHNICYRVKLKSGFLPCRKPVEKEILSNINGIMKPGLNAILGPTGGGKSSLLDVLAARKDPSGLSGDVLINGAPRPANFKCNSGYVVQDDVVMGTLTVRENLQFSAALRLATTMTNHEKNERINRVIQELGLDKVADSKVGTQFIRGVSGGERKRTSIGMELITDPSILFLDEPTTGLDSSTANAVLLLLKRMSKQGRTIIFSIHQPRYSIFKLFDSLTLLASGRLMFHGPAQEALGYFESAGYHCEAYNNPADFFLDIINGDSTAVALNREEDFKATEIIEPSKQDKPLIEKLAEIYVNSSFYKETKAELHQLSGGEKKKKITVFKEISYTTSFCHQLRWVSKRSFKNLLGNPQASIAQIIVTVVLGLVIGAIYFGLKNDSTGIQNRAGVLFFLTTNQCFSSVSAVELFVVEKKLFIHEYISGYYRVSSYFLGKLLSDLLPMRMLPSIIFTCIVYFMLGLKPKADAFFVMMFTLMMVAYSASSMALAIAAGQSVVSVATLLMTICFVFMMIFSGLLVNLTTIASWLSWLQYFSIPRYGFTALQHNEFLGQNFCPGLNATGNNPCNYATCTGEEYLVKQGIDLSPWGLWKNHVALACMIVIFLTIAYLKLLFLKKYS
# B1: rat Oat3 (Rattus norvegicus) (protein)
# chain: MTFSEILDRVGSMGPFQYLHVTLLALPVLGIANHNLLQIFTATTPVHHCRPPPNASIGPWVLPLDPNGKPEKCLRFVHLPNASLPNDTQRATEPCLDGWIYNSTRDTIVIEWDLVCSSNKLKEMAQSIFMAGILVGGPVIGELSDRFGRKPILTWSYLMLAASGSGAAFSPSLPVYMIFRFLCGCSISGISLSTVILNVEWVPTSMRAISSTSIGYCYTIGQFILSGLAYAIPQWRWLQLTSSAPFFIFSLLSWWVPESIRWLVLSGKYSKALKTLQRVATFNGKKEEGKKLTIEELKFNLQKDITSAKVKYGLSDLFRVSILRRVTFCLSLAWFSTGFAYYSLAMGVEEFGVNIYILQIIFGGVDIPAKFITILSLSYLGRRITQSFLLLLAGGAILALIFVPSEMQLLRTALAVFGKGCLSGSFSCLFLYTSELYPTVLRQTGMGISNVWARVGSMIAPLVKITGELQPFIPNVIFGTTALLGGSAAFFLLETLNRPLPETIEDIQNWHKQVQKTKQESEAEKASQIIPLKTGG
# B2: human OAT1 (Homo sapiens) (protein)
# chain: MAFNDLLQQVGGVGRFQQIQVTLVVLPLLLMASHNTLQNFTAAIPTHHCRPPADANLSKNGGLEVWLPRDRQGQPESCLRFTSPQWGLPFLNGTEANGTGATEPCTDGWIYDNSTFPSTIVTEWDLVCSHRALRQLAQSLYMVGVLLGAMVFGYLADRLGRRKVLILNYLQTAVSGTCAAFAPNFPIYCAFRLLSGMALAGISLNCMTLNVEWMPIHTRACVGTLIGYVYSLGQFLLAGVAYAVPHWRHLQLLVSAPFFAFFIYSWFFIESARWHSSSGRLDLTLRALQRVARINGKREEGAKLSMEVLRASLQKELTMGKGQASAMELLRCPTLRHLFLCLSMLWFATSFAYYGLVMDLQGFGVSIYLIQVIFGAVDLPAKLVGFLVINSLGRRPAQMAALLLAGICILLNGVIPQDQSIVRTSLAVLGKGCLAASFNCIFLYTGELYPTMIRQTGMGMGSTMARVGSIVSPLVSMTAELYPSMPLFIYGAVPVAASAVTVLLPETLGQPLPDTVQDLESRWAPTQKEAGIYPRKGKQTRQQQEHQKYMVPLQASAQEKNGL
# B3: rat Oat2 (Rattus norvegicus) (protein)
# chain: MGFEDLLDKVGGFGPFQLRNLVLMALPRMLLPMHFLLPVFMAAVPAHHCALPGAPANLSHQDLWLEAHLPRETDGSFSSCLRFAYPQTVPNVTLGTEVSNSGEPEGEPLTVPCSQGWEYDRSEFSSTIATEWDLVCQQRGLNKITSTCFFIGVLVGAVVYGYLSDRFGRRRLLLVAYVSSLVLGLMSAASINYIMFVVTRTLTGSALAGFTIIVLPLELEWLDVEHRTVAGVISTVFWSGGVLLLALVGYLIRSWRWLLLAATLPCVPGIISIWWVPESARWLLTQGRVEEAKKYLLSCAKLNGRPVGEGSLSQEALNNVVTMERALQRPSYLDLFRTSQLRHISLCCMMVWFGVNFSYYGLTLDVSGLGLNVYQTQLLFGAVELPSKIMVYFLVRRLGRRLTEAGMLLGAALTFGTSLLVSLETKSWITALVVVGKAFSEAAFTTAYLFTSELYPTVLRQTGLGLTALMGRLGASLAPLAALLDGVWLLLPKVAYGGIALVAACTALLLPETKKAQLPETIQDVERKSTQEEDV
# B4: rat Oat1 (Rattus norvegicus) (protein)
# chain: MAFNDLLKQVGGVGRFQLIQVTMVVAPLLLMASHNTLQNFTAAIPPHHCRPPANANLSKDGGLEAWLPLDKQGQPESCLRFTSPQWGPPFYNGTEANGTRVTEPCIDGWVYDNSTFPSTIVTEWNLVCSHRAFRQLAQSLYMVGVLLGAMVFGYLADRLGRRKVLILNYLQTAVSGTCAAYAPNYTVYCVFRLLSGMSLASIAINCMTLNVEWMPIHTRAYVGTLIGYVYSLGQFLLAGIAYAVPHWRHLQLVVSVPFFIAFIYSWFFIESARWYSSSGRLDLTLRALQRVARINGKQEEGAKLSIEVLRTSLQKELTLSKGQASAMELLRCPTLRHLFLCLSMLWFATSFAYYGLVMDLQGFGVSMYLIQVIFGAVDLPAKFVCFLVINSMGRRPAQMASLLLAGICILVNGIIPKSHTIIRTSLAVLGKGCLASSFNCIFLYTGELYPTVIRQTGLGMGSTMARVGSIVSPLVSMTAEFYPSMPLFIFGAVPVVASAVTALLPETLGQPLPDTVQDLKSRSRGKQNQQQQEQQKQMMPLQASTQEKNGL
# B5: human OAT2 (Homo sapiens) (protein)
# chain: MGFEELLEQVGGFGPFQLRNVALLALPRVLLPLHFLLPIFLAAVPAHRCALPGAPANFSHQDVWLEAHLPREPDGTLSSCLRFAYPQALPNTTLGEERQSRGELEDEPATVPCSQGWEYDHSEFSSTIATEWDLVCEQKGLNRAASTFFFAGVLVGAVAFGYLSDRFGRRRLLLVAYVSTLVLGLASAASVSYVMFAITRTLTGSALAGFTIIVMPLELEWLDVEHRTVAGVLSSTFWTGGVMLLALVGYLIRDWRWLLLAVTLPCAPGILSLWWVPESARWLLTQGHVKEAHRYLLHCARLNGRPVCEDSFSQEAVSKVAAGERVVRRPSYLDLFRTPRLRHISLCCVVVWFGVNFSYYGLSLDVSGLGLNVYQTQLLFGAVELPSKLLVYLSVRYAGRRLTQAGTLLGTALAFGTRLLVSSDMKSWSTVLAVMGKAFSEAAFTTAYLFTSELYPTVLRQTGMGLTALVGRLGGSLAPLAALLDGVWLSLPKLTYGGIALLAAGTALLLPETRQAQLPETIQDVERKSAPTSLQEEEMPMKQVQN
# What was measured:
# rat Bcrp = target: T1, rat Bcrp; test: Vesicular transport assay, inside-out membrane vesicles expressing rat Bcrp; conditions: positive substrate 20 μM, 10 min; rat Bcrp
# Method: (§1) Inside-out membrane vesicles (5 mg protein/mL), prepared from insect cells expressing human multidrug resistance-associated protein (MRP) 2, MRP3, MRP4, breast cancer resistance protein (BCRP), bile salt export pump (BSEP), and multidrug resistance protein (MDR) one and rat Mrp2, Mrp4, Bcrp, and Bsep, and vesicles (5 mg protein/mL; prepared from the insect cells expressing no ABC transporter; serving as negative control) were obtained from Genomembrane (Kanazawa, Japan).
# (§2) The test Danshen compounds at 100 µM final concentration were separately incubated with the membrane vesicles for 10 min. Buffer C (50 mM MOPS-tris, 70 mM KCl, 7.5 mM MgCl2, pH 7.0) was used for preincubation and incubation, while buffer D (40 mM MOPS-tris, 70 mM KCl, pH 7.0) was used for vesicle washing. The transport rate (pmol/mg protein/min) of the test Danshen compound was calculated using Equation (2): Transport=(CV×VV)/T/WV (2) where C V, V V, T, and W V represent concentration of the compound in vesicular lysates supernatant (μM), volume of the lysates (μL), incubation time (10 min), and amount of vesicle protein amount per well (0.05 mg), respectively. Differential transport of the test Danshen compound between ATP-containing vesicles and AMP-containing vesicles was defined as net transport ratio (TransportATP/TransportAMP ratio). […] All the incubation samples were analyzed by liquid chromatography/mass spectrometry.
# human BCRP = target: T2, human BCRP; test: Vesicular transport assay, inside-out membrane vesicles expressing human BCRP; conditions: positive substrate 20 μM, 10 min; human BCRP
# Method: as §1, §2
# [1] = substrate: O=C(O)c1ccc(O)c(O)c1; test: cells, lysate or membranes named; conditions: 5 min incubation, concentrations in Table 1, 37.0 °C
# [2] = substrate: O=C(/C=C/c1ccc(O)c(O)c1)O[C@H](Cc1ccc(O)c(O)c1)C(=O)O; test: cells, lysate or membranes named; conditions: 5 min incubation, concentrations in Table 1, 37.0 °C
# [3] = substrate: O=C(O)Cc1c(/C=C/C(=O)OC(Cc2ccc(O)c(O)c2)C(=O)O)ccc(O)c1O; test: cells, lysate or membranes named; conditions: 5 min incubation, concentrations in Table 1, 37.0 °C
# [4] = other: rat renal basolateral uptake Oat3
# [5] = other: human renal basolateral uptake OAT1
# [6] = other: rat hepatic sinusoidal uptake Oat2 (also renal apical)
# [7] = other: rat renal basolateral uptake Oat1
# [8] = other: human hepatic sinusoidal uptake OAT2 (also renal basolateral)
molecule,measurement,setting,value
"CN(Cc1cnc2nc(N)nc(N)c2n1)c1ccc(C(=O)N[C@@H](CCC(=O)O)C(=O)O)cc1 [MTX, methotrexate, reference compound]","TransportATP/TransportAMP ratio, positive substrate",rat Bcrp,20.5 ± 3.2 (MTX)
same,"TransportATP/TransportAMP ratio, positive substrate",human BCRP,4.45 ± 0.67 (MTX)
B1,Vmax,[1]; [4],6.68e-05 µmol/min/mg
same,Vmax,[2]; [4],3.58e-06 µmol/min/mg
same,Vmax/Km,[2]; [4],0.15 µL/min/mg
B2,Vmax,[1]; [5],0.000242 µmol/min/mg
same,Vmax,[2]; [5],0.000181 µmol/min/mg
same,Vmax/Km,[2]; [5],2.55 µL/min/mg
same,Vmax,[3]; [5],3.76e-05 µmol/min/mg
same,Vmax/Km,[3]; [5],2.08 µL/min/mg
B3,Vmax,[1]; [6],0.00118 ± 1.9e-05 µmol/min/mg
same,Vmax,[2]; [6],0.00062 µmol/min/mg
same,Vmax/Km,[2]; [6],5.2 µL/min/mg
same,Vmax,[3]; [6],0.000164 µmol/min/mg
same,Vmax/Km,[3]; [6],2.73 µL/min/mg
B4,Vmax,[1]; [7],0.000446 µmol/min/mg
same,Vmax,[2]; [7],0.000206 µmol/min/mg
same,Vmax/Km,[2]; [7],3.47 µL/min/mg
same,Vmax,[3]; [7],0.000115 µmol/min/mg
same,Vmax/Km,[3]; [7],4.72 µL/min/mg
B5,Vmax,[1]; [8],0.00382 ± 0.000177 µmol/min/mg
same,Vmax,[2]; [8],0.000927 µmol/min/mg
same,Vmax/Km,[2]; [8],19.1 µL/min/mg
same,Vmax,[3]; [8],0.00269 ± 0.000114 µmol/min/mg
same,Vmax/Km,[3]; [8],24.3 µL/min/mg
